# Measured values reported in article doi:10.1101/2024.11.05.621662 (bioRxiv, 2024).
# B1: TFG PB1 domain (amino acids 1-96), wild type (domain or fragment, human, UniProt Q92734 1-96, looked up)
# chain: MNGQLDLSGKLIIKAQLGEDIRRIPIHNEDITYDELVLMMQRVFRGKLLSNDEVTIKYKDEDGDLITIFDSSDLSFAIQCSRILKLTLFVNGQPRP
# Biological target: the molecule itself
# Test: SEC-MALS
protein,measurement,value
B1,stoichiometry N,8
